This is an account of results in US20110282033A1 (Ablynx, published 2011).

The target of experiment [1] is T1, Recombinant human PDGFRβ/Fc chimera (R&D Systems Cat #385 PR) (human, UniProt P09619 33-532).
T1 construct: extracellular domain; Bought reagent; also called PDGFRP-Fc; not shown: Fc part of the bought chimera (captured and detected with anti-human IgG)
The experiment is described as follows: ELISA binding screen on captured PDGFRβ-Fc and ELISA ligand competition. The procedure: (§1) In order to determine binding specificity to PDGFRβ-Fc, the clones were tested in an ELISA binding assay setup, using the monoclonal phage pools. Shortly, 1 ug/ml of Fc-capturing Ab (Rabbit anti-human IgG, DAKO # A423) was coated on Maxisorp ELISA plates (Nunc) and free binding sites were blocked using 4% Marvel skimmed milk in PBS. Next, 0.1 ug/ml receptor in 2% Marvel/PBS was captured. After a wash step with PBS, 10 ul of supernatant from the monoclonal phage inductions of the different clones in 100 ul 2% Marvel PBS were allowed to bind to the captured PDGFRP-Fc. […] Binding specificity was determined based on OD values compared to controls having received no phage.
Clones tested in the PDGFRβ binding assay were also screened for their ability to block PDGF-BB binding to PDGFRβ-Fc. For this, Nanobody containing periplasmic extracts, or selected purified Nanobodies, were used in an ELISA-based ligand competition setup. In short, 1.0 ug/ml (80 nM) recombinant human PDGF-BB (R&D Systems #220-BB) was coated in 96 well Maxisorp microtiter plates (Nunc) and blocked with 4% Marvel skimmed milk in PBS. In parallel, 1 ug/ml (12 nM) PDGFRβ-Fc chimera was incubated with periplasmic extracts or purified Nanobody. After 1 hour, the receptor-Nanobody pre-mixes were incubated 1 hour with the coated ligand. Bound PDGFRβ-Fc was detected using HRP-conjugated goat anti-human IgG (Jackson Immunoresearch, Cat #109-035-098). Blocking activity was determined as loss of OD signal, as compared to wells where no Nanobodies, or irrelevant Nb, had been added.

In experiment [2] the target is T2, Recombinant human FGFR4/Fc chimera (R&D Systems Cat #685 FR) (human, UniProt P22455 22-369).
T2 construct: extracellular domain; Bought reagent; also called Fc-FGFR4; not shown: Fc part of the bought chimera (detected with anti-human IgG)
T2 sequence (looked up): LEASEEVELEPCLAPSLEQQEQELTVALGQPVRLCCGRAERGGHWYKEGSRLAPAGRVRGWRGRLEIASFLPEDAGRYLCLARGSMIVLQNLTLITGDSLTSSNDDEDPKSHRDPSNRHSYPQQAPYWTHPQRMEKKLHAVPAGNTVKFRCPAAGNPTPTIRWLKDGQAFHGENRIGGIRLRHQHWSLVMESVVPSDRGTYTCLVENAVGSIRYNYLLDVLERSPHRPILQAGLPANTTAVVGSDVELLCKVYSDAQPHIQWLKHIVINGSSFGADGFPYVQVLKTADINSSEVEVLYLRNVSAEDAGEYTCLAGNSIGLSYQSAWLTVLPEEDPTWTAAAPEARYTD
Put plainly: ELISA: periplasmic extract on coated FGFR4-Fc (500 ng/ml). The procedure:
In order to determine binding specificity to FGFR4, the clones were tested in an ELISA binding assay setup, using the monoclonal […]. Shortly, 500 ng/ml of Fc-FGFR4 (R&D Systems Cat #685 FR) was coated on Maxisorp ELISA plates (Nunc) and free binding sites were blocked using 4% Marvel skimmed milk in PBS. After a wash step with PBS, 10 ul of periplasmic extract from the monoclonal inductions of the different clones in 100 ul 2% Marvel PBS were allowed to bind to the FGFR4-Fc. […] 53-G3 was used as a reference since it was selected against PDGFRβ-Fc.

For experiment [3], the target named is T1, Recombinant human PDGFRβ/Fc chimera …. Put plainly: competition ELISA: PDGFRβ-Fc (12 nM) pre-mixed with Nanobody, binding to coated PDGF-BB (80 nM), detection with HRP anti-human IgG. The procedure: In order to determine the receptor blocking efficiency of clones tested positive for PDGF-BB competition, a dilution series of purified Nanobodies were tested in the ELISA-based ligand competition setup. In short, 1.0 ug/ml (80 nM) recombinant human PDGF-BB (R&D Systems #220-BB) was coated in 96 well Maxisorp microtiter plates (Nunc) and blocked with 4% Marvel skimmed milk in PBS. In parallel, 1 ug/ml (12 nM) PDGFRβ-Fc chimera was incubated with a dilution series of purified Nanobodies. After 1 hour, the receptor-Nanobody pre-mixes were incubated 1 hour with the coated ligand. Bound PDGFRβ-Fc was detected using HRP-conjugated goat anti-human IgG (Jackson Immunoresearch, Cat # 109-035-098). […] Ligand is coated at 80 nM and receptor is added at 12 nM.

Experiment [4] has as its target T2, Recombinant human FGFR4/Fc chimera (R&D …). The experiment is described as follows: competition ELISA: FGFR4-Fc with heparin and MgCl2 pre-mixed with Nanobody, binding to coated acidic FGF (129 nM), detection with HRP anti-human IgG. The procedure: Clones tested in the FGFR4 binding assay were also screened for their ability to block acidic FGF binding to FGFR4-Fc. For this, purified Nanobodies, were used in an ELISA-based ligand competition setup. In short, 2.0 ug/ml (129 nM) human FGF (R&D Systems Cat #232-FA/CF) was coated in 96 well Maxisorp microtiter plates (Nunc) and blocked with 4% Marvel skimmed milk in PBS. In parallel, 0.25 ug/ml (1.9 nM) FGFR4-Fc chimera plus 2.5 μg/ml heparin and 10 mM MgCl₂ were incubated with periplasmic extracts or purified Nanobody. After 1 hour, the receptor-Nanobody pre-mixes were incubated 1 hour with the coated ligand. Bound FGFR4-Fc was detected using HRP-conjugated goat anti-human IgG (Jackson Immunoresearch, Cat #109-035-098). Blocking activity was determined as loss of OD signal, as compared to wells where irrelevant Nanobody had been added. […] Ligand is coated at 129 nM and receptor is added at […].
(In an ELISA, binding on a coated surface is turned into a signal by an enzyme label.)

In experiment [5] the target is T1, Recombinant human PDGFRβ/Fc chimera …. Put plainly: phage ELISA on PDGFRβ-Fc (0.1 ug/ml) captured by coated anti-human IgG, detection with HRP anti-M13. The protocol: as §1

Positions count from the first letter of the chain named.

T1 sequence (P09619 33-532, change not shown): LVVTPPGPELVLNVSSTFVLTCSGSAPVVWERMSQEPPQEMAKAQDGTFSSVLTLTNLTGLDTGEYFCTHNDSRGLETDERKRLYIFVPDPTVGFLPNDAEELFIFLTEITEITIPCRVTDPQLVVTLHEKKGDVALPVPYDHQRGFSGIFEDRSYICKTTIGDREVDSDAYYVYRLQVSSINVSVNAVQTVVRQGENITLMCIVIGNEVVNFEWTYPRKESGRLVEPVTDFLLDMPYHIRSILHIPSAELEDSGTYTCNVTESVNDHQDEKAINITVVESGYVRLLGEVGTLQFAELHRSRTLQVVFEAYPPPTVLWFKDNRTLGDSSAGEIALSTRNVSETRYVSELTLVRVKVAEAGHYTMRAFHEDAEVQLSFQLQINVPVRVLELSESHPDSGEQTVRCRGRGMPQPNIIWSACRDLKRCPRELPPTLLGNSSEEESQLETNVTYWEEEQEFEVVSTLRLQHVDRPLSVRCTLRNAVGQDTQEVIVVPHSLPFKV

B1: 53-F3 (VHH)
VHH: EVQLVESGGGLVQPGGSLRLSCAAPGSIVSINNMGWYRQAPGKQRELVALITSGGTTTYADSVKGRFTISGDNAKKMVYLQMNSLKPEDTAVYYCNAVFTTDTRNWYDYWGQGTQVTVSS
Consider B1, for which the binding result in experiment [1] is recorded as “binds”.

B2: 73-E6 (VHH)
VHH: EVQLVESGGGLVQAGGSLRLSCAASGSTFTETPFTMHALSWYRQSEGKERELVAAISLAGTTNYADSVKGRFTISRDNGKKAVYLQMNSLKAEDTAVYYCNVGSWFQGYYAMDYWGEGTLVTVSS
notes: Purified Nanobody
For B2, the binding result in experiment [2] was “binds”.

B3: 53-A5 (VHH)
VHH: EVQLVESGGGLVQAGGSLRLTCVVSGRTYNNYVMGWFRQAPGKEREFVAGIDWSSSWSSTLYADSVKGRFTISRNNAKKTVSLQMNSLKPEDTAVYYCAANLGSKNPSLRPGREAYNYWGQGTQVTVSS
notes: Purified Nanobody
Turning to B3, in experiment [3], the “IC50 (read off the curve)” value is ~8 nM.

B4: 73-A7 (VHH)
VHH: EVQLVESGGGLVQPGGSLRLSCAASGFTFGSYDMSWVRQAPGKGPEWVSAINSGGGTTYYADSVKGRFTISRDNAKNTLYLQMNSLKPEDTAVYYCATGRPLWDYSDYADFGSWGQGTQVTVSS
notes: Purified Nanobody
For the molecule B4, the binding result in experiment [2] was “binds”.

B5: 73-G9 (VHH)
VHH: EVQLVESGGGLVQPGGSLKLSCAAAGFTFRPYAMGWFRQAPGKEREFVAAVATNVGTTFYQDSVKGRFTISRDNAKNTVYLQMNSLRPEDTAVYYCNTKLYSGIFREYWGQGTQVTVSS
notes: Purified Nanobody
With B5, the “IC50 (read off the curve)” value in experiment [4] was ~10 nM.

B6: 53-D6 (VHH)
VHH: EVQLVESGGGLVEAGGSLRLSCTASGGTFSTYAMGWFRQAPGKEREFAAAISRNGGSKGYKESVKGRFTISRDNAKNTVYLQMNSLKPEDTAVYYCAASRTYTYSTAMKDYNYWGQGTQVTVSS
In the case of B6, in experiment [1], the binding result was “binds”.

B7: 53-F7 (VHH)
VHH: EVQLVESGGALVQPGGSLRLSCAASGSIVSIDFMGWYRQAPGKQREVVTFITSGGSPNYVDSVEGRFTISRDNAKNTMYLQMNSLKPEDTAVYYCYMQSGTAGSWGQGTQVTVSS
With B7, in experiment [1], the binding result is “binds”.

B8: 53-A3 (VHH)
VHH: B7 VHH with A10G, S30R, I31V, E64T, M97I
notes: Purified Nanobody
Take B8: in experiment [5], the binding result is listed as “binds”.

B9: 55-B8 (VHH)
VHH: EVQLVESGGGLVQPGGSLRLSCTASTSIFSLYDMGWYRQAPGKERELVARITSGRSINYADSVKGRFTISRDNAKNTVYLQMNSLKPEDTAAYYCNANHHDWGTNWDFWGQGTQVTVSS
notes: Purified Nanobody
Turning to B9, in experiment [2], the binding result is “binds”.

B10: 55-D5 (VHH)
VHH: EVQLVESGGALVQPGGSLRLSCAASGFTFRNYDMSWVRQAPGKGPEWVSSINSGGGSTYYADSVKGRFTISRDNAKNTLYLQMNSLKPEDTAVYYCATGLITTAQAMLEEYDYWGQGTQVTVSS
notes: Purified Nanobody
Consider B10, for which the “IC50 (read off the curve)” value in experiment [4] was ~8 nM.

B11: 53-A6 (VHH)
VHH: EVQLVESGGGLVQPGGSRRLSCATSASITSISFMGWYRQAPGKQRELVAFIPSSGVPNYVGFAEGRFTISRDDAKNTVYLQMNGLKPEDTAVYYCYLQPLGGSGSWGQGTQVTVSS
As for B11, the binding result in experiment [1] is “binds”.

B12: 53-H8 (VHH)
VHH: EVQLVESGGGLVQAGGSLRLTCVVSGRTYNNYVMGWFRQAPGKEREFVAGIDWSSSWTSTTLYADSVKGRFTISRNNAKKTVSLQMNSLKPEDTAVYYCAANLGSKNPSLRPGRETYNYWGQGAQVTVSS
notes: Purified Nanobody
Take B12: the “IC50 (read off the curve)” value in experiment [3] was ~9 nM.

B13: 73-A9 (VHH)
VHH: EVQLVESGGGLVQPGESLSLSCTASGSAFGINSMGWYRQAPGKERELVAVMYSDSNTTYTDSVKGRFTISRDYAKNTVYLRMNSLKPEDTAVYFCHCEAIREPGDYYGWHYWGKGTLVTVSS
notes: Purified Nanobody
Turning to B13, the binding result in experiment [2] is “binds”.

B14: 53-B7 (VHH)
VHH: EVQLVESGGGLVQAGGSLRLDCAASGRTSYAMGWFRQGTGKEREFVAALSPSGYYTYYEDSVKGRFSIHRDNAKNMVYLQMNSLTPEDTAVYYCAAGRHETASGILPNYWGQGIQVTVSS
For B14, in experiment [1], the binding result is “binds”.

B15: 53-G7 (VHH)
VHH: B14 VHH with L49I, S67F, E100K, A102V, N108D
Turning to B15, the binding result in experiment [1] is on record as “binds”.

B16: 53-C4 (VHH)
VHH: B14 VHH with L49I, E100Q, A102V, N108D
For B16, in experiment [1], the binding result is reported as “binds”.

B17: 53-G8 (VHH)
VHH: B14 VHH with E1K, A47S, L49I, E100Q, A102V, N108D
Regarding B17, the binding result in experiment [1] is listed as “binds”.

B18: 53-C7 (VHH)
VHH: B14 VHH with K41Q, L49I, S67N, A73T, E100K, A102V, N108D
B18: the binding result in experiment [1] is recorded as “binds”.

B19: 53-F9 (VHH)
VHH: B14 VHH with L49I, S67F, I68M, E100N, A102V, N108D, Q112R
For B19, the binding result in experiment [1] was “binds”.

B20: 53-G10 (VHH)
VHH: EVQLVESGGGLVQAGGSLRLSCAASGLFFSFYNMGWFRQAPGKEREFVAIIRKTGGSTYYADSVKGRFTISRDNAKNTVYLQMDSLKPEDTAVYYCAAASSYYSDSYYYTRSDKYNYWGQGTQVTVSS
notes: Purified Nanobody
Consider B20, for which, in experiment [3], the “IC50 (read off the curve)” value is ~60 nM.
